From a protein production outcome set (Wang et al. 2014)

Assay: label from the status in PepcDB records

| Sequence | protein production |
| --- | --- |
| MAPQPVIRSKQAEKTINGNQTQVVCTEFSNYIFIVLTQYGKIGTLVSITPDTRSGDISVPMYTSKVLLGKDEPLTHVYAKNVATFVSQESGNRPILLGLSLKDNSAETMKTVKDMIKSCQVW | failed |
| MKPRDINKLIASKIFGYEIKDDNIIKDGRYRLGIPLYSQNIESAWQVVEKLEYDVKVTKTDLKPKYQVHVFVPGGVKMVFAETAPMAICKGALASVDIELQD | not failed |
| MLIYGLARLLLFVVLTLIIHSLALLISAPVPLVMSAMLALIVAFPLSMLVFSKLRMNATQAVSQWDAQRKAHKEWVRSELADR | failed |
| MKNILKVFNTTILALIIIIATFSNSANAADSGTLNYEVYKYNTNDTSIANDYFNKPAKYIKKNGKLYVQITVNHSHWITGMSIEGHKENIISKNTAKDERTSEFEVSKLNGKIDGKIDVYIDEKVNGKPFKYDHHYNITYKFNGPTDVAGANAP | not failed |
| MIIPVRRFTPNAYIMRILVSIIVFLCIGWIGRVTELEENFITQNKPVEVGTFVTFTINIPDGSEIPYVAWDFGDGSGLGRYRKSLSVSYTFTEPGVYQVYARIQGEDFPLTVIQTVYKPTQKPAPAHSSTIVIDTVHQKVWAVNTDNNSVAYIDALNNTLLSEIPVGKQPRTVALDKDGNAWVANEEDASISVIAAATGQVLQTIILPYASRPYGICFDPQKDFCYVTLQGTGELVKIEAIGREIVESVHVGRSPRGIAVTSDGSQMLVTQFISPEENGLVRLIDTKTMHVQQEIVLAFDVTPDFEDRGRGVPNFLSSITITPDGTEAWVPSKKDNTARGMFRDGLALEFDNTVRTIVSRIDLSTMTENSQMRTDINDADMACAVEFSPYGNIAFVALQGVNKITMIDVASNSRLGLLDSTGLAPQGLVINADGSRLFVHNFLTRTVKVFNTEDIVLSNNFTPVVAATISTIITEKLAPQVLEGKQIFYNAADERMTFAGYISCASCHLDGASDERVWDFTDRGEGFRNTHSLLGRGGMDMGNVHWTSNFDEIQDFENDMRNGFKGKGFLPDAVFALVSDPLGNPKAGLSRELDALAAYVTSLNKVHASPYRNNDGSLTADGIEGEILFQELGCGSCHAGQDFTDRKTGVLHDVGTEQPSSGERRTLALTGFGTPTLKGIWETAPYLHDGSALTLKDVLVTRNAEKKHGDLSNLTETELDKLVAYLLQIDDNQDAVITALLFPIKREFVAMRIFPNPASESANVQLTNIVKSSGTIRIYNVIGHLLMTVLVEGMNEINLDVSQLNSGVYVVEYSDDTSKYSQKMVIQ | failed |
| MGPDGPPCEISTWKHNSMKQIALSLFVIAASGAYVWDQAGKNPANDMLGEALPADAAEAPTVQPKEPASAAALPVLRTSPAPLDPRFRTRLPIARETTAGIAVPAERPNDPVKQTVVPVAPQPSPAPPAQPVTPAVTDPASSTPSFAVTPAIYIPVPQPRPAYPNAPVRVVRVGMKPAAHGYADGVYTGPTADAYYGIIQIQALVQGGQLTALKVLKYPSDRRTSVNINRQALPMLRDEAISAQSADVDIISGATLTSRAFIQSLRGALKKASSLEHHHHHH | failed |
| MITRTIRGILKGAAVFLGLAGAIALLHAFGLDSTLDTAWIDSHIRDHGLQGHLLYIGIAGVLTALAVPRQFVSFLGGYAFGAAFGTLWATVGATLGCMLTFFYARFAGQSLVNRRFSHRVARVNAFLSRNPFTMTFIIRCLPVGNNVLTNLIAGVSSIPAVQFFAGSFIGYIPQHFIFALLGSGVHVSPVLRTVTSALLFVLSSVFGYMLYRRYRIDRDLEEPDDQ | failed |
| MSKELTAKKRAALNRLKTVRGHLDGIVRMLESDAYCVDVMKQISAVQSSLERANRVMLHNHLETCFSTAVLDGHGQAAIEELIDAVKFTPALTGPHARLGGAAVGESATEEPMPDASNM | not failed |
| SAESWLRLSGAGPAEEAGPEGGLEEPDALDDSLTSLQWLQEFSILNAKAPALPPGGTDPHGYHQVPGSAAPGSPLAADPACLGQPHTPGKPTSSCTSRSAPPGLQAPPPDDVDYATNPHVKPPYSYATLICMAMQASKATKITLSAIYKWITDNFCYFRHADPTWQNSIRHNLSLNKCFIKVPREKDEPGKGGFWRIDPQYAERLLSGAFKKRRLPPVHIHPAFARQAAQEPSAVPRAGPLTVNTEAQQLLREFEEATGEAGWGAGEGRLGHKRKQPLPKRVAKVPRPPSTLLPTPEEQGELEPLKGNFDWEAIFDAGTLGGELGALEALELSPPLSPASHVDVDLTIHGRHIDCPATWGPSVEQAADSLDFDETFLATSFLQHPWDESGSGCLPPEPLFEAGDATLASDLQDWASVGAFL | failed |
| MTDFSRTFSGTPSAVLPTANRFFRPPLPSAHVARPRLCRRLRDGLDGRLLLIAAPAGFGKSSLAIEFCESLDPRWQSLWLGLSSRESDPGRFLERLLDGLRQYHPTLGEEALGLLKMRQRHQPFAFETWLDDLLDELAPCLDPQRPLLLVLDDYHLAQGAVLDRCLQFLLNHLPEGLVLLVTSRQRPDWHLARLRLSRQLLELSEQDLRLTAEESGALMAASGLELDEDALDALLERSEGWVAGLRLWLLARGDPEEQVSPGVHGADELIRDYLLEEVIERQPPEVQAFLAQTARFERFCAELCDTVREAGDSAAILDHLQQHQVFLVPLDENGQWFRYHHLFSDLLLARPLPDFGPSAGSLHLRACGWFSRHGLLDQAVEQALRAGQPDVAASLVQNLSEEQLLAEQNIATLLRWKMDLPDSLLASTPRLILLYGWALALACQLDAAEELAGQLARFLPAPDESAQRDLLAQWQALSGVIARGRGDIDKAEAHCREALQDLAGERYGTRLQCLSTLSNLAVTRGDFWQARNYNRDALEFAQRYGNPLFEALVHYDRARVLQARGEVARAEEEVRQGLERLQHLPAQRRYAVRGRLLLYRGYLRSLALQPDEARKWIKQGIEETRSCRDVSLVIGYCVLASLEGRLGNYAAAFARLGDVERLMHAWDIPPIYYLAAITLIKCELWLAQGQTELAGVWLQRLGGTYGGQAATPPECSPLLPLHVELLQAGLERREGRPEEAARRLDRLARSTRENGALLPARLALGQLAALHLEQGREREALATLQQAMEGAVGGALLPLHELLVQQPEWLREQLQRFPACPGAQRMRALLPEPPAEPAGSAGEVLSGRELAVLELIAQGLSNQEISERLFISLHTVKSHARHINDKLGVERRTQAVARAKHMGLLR | failed |
| MRTALLQNLFSLFPFDLHGDCDVPPARDGIRVSCIINFYGRLNVLAGILWSLAQQDFPRSAFEVILVEDRGGSDEGRALAEEFSSRLPIVYAPLDKQYGLMGYSRNFGLERSRGEFILFLDDDTIILQDDFLKTMVAYFDAQPGVSAIMPHGEASFAFVDDRYDFHDPFFMTSRCTAYRRTVLASLGGFMSSFIGQEDVEFVIRFHAAGNRCAAVPQLAYRHPPLYVTNLGKPMAVGSSFYGIRKRYPLVTWLLAVVNCSRHLPLVLAPSRKYREMGRFGLGFLWGVLTAPFRSGSLNYRLEHHHHHH | failed |
| MITFRKRVEIEADPAEVFRVISDPWRITEFWKGTRQVIEDGDFYRIRFAFPAWGLMSFHPDAERMTVLTSYLKGPVRGSKVDAVLVSSGKTVLQTEWNVRLSFYLRPFERRIASHFESGADHAINRIKESVEKDKK | failed |
| MSNWNLDNFDNLHSSLAESAYNSRPNSFPELFETDSVTEVKFSQPSEDNKGQITQGGTNLPNDGIVYLQPDKSLKSIDENVKVLIPDVNGGYHTEHYVTHSYQKGVLTDDKAGFNAYYLSDTEKIDSTTKHTYLAIRGSDGIGLDTLNDWVSNNAMFAVSNKYIPQAKLANKAMKEKIAELKGKAPGAIIDVTGHSLGTIVSSQAVVNLSYAELENVGQVVLFDGPDVSRSLEKMEGISAKKIQEAGKHVTYYVNPFDIVSMLNREKP | failed |
| MRATACWFVSGLVTFKSENKTRRLVSATHNSRPSMSRVRSWILVVGVLVGAVGGCAEPQDGRGPATADSIAATAPGTDVVGAPLDASGDTLRMGRPTPVTTRPGYDNQPAFLPDGSGLVWTAIHDGQADVYRKIEDEGGPAPVTDTPESEFSPTPRPGGALTLVRVEADGRQRLWRYRADGTPDAPVLPDADSVGYHAWLDSSRVALFVLGAPPTLHVANVKSGTDTVVARRIGRSLQSVPGRADVSFVQVGPDSSVAIHRLDGASLTTRRLTEAPTNAPTGDHAWTPGGHLLMTTEDSLVAWRRGRADWRPVAALDTMDVSRLAVSPSGDRLAMVAAE | failed |
| MQTDEKLHVLLADDDPIMLARLSRQLEADGHHVASRRDGETALAYALEHQPEMVITDWHMKPMNGLELCRALRESALGGNVYIVMLTASESEDALVEAFGAGIDDYVIKPPSVRVLKARIRAGQRIITLHKKLARERKEIERYSSELAAANRRLELMAHTLEHHHHHH | failed |
